In patent US11352401:

Target: HLA-A*01 (human)
Assay: UV peptide-exchange ELISA; ++++ = yield >75%
Conditions: remark: other sources report otherwise

NTDNNLAVY [… (SEQ ID NO: 164)]
peptide exchange yield: > 75%
